Reference: a protein production outcome set (Wang et al. 2014)

Experiment: label from the status in PepcDB records

Sequence | protein production
MKIFAVVVTYNRLALLKKVIDLLKRQTRQLDSIVIVNNGSTDGTKEWLEQEKNITLINQSNSGGAGGFETGVKYAYENEADWIWMMDDDVFPNIDCLEKLLGWTSISQCIQPRRYYSDDVEVNFEQWLDPITYSKFGYWQEKSFNNGKKFCAINVGCFEGMFVSKSIVNKIGFPDKRFFIAEDDTIYGFAASFYTNVILVSDAIMVRARRSSDRSVSPMYTYYACRNFHLVYESLNLLLDKKNRFLYIKYIYQFVHQIYLSIFLYDNKMKHLISVFRGFYDCFRKKNGATYLEHHHHHH | failed
MPSIVKGIIPPVLTPMKSDRSIDFEALERLVEHLIAGGVDGLFALGSSGEVAFLSDEDRATVIREIVRIAAGRVPVYAGVIDMQVNRMLGHIKAAEEAGVD | not failed
MDRFENMNAFVRVVETGSISAAADRMDIAKSVVSRRLKELEEHLGVELFHRTTRQMNLTDSGRAFYQQSVRILADVLEAEHATSQFHGRLKGHLKVAVPLSFGLMHLGAAISTFLQTHPDIEFDLDFNDRQVDLLAEGFDLAIRIANLPDSSLIARRLAPIQAVMCASPAYLERMGTPQAPEELIRHRCLVYNLVSHSDNWNVYGTTGELIKTRIIPYLKASNGEFLRDAAVDGLGIVLLPTFIVYREIQRGALIPILTGYHYAQLAAYAIYPQTRHLSQRVRAFVDFLSQRFEGMPYWDACLNQ | failed
RSRTKLLLLTVIPLIVITALVMAVNYQSGLSTLQKELENYRTDLIDAKKKELQAYLMMGVTAVKPLYESDKAGENQAQAKQILKAMRFDSDGYFFAYDSQGVNTLHAIKPELEGKNLYGMKD | failed
MATESSESEEEGKISGGNYKLIIDDDLREMGKNAAWSVSSYGLQPHLINIQFQKKVKLQLVVLYVDFKLDESYTPSKISIRAGDGFHNLKEIKSVELVKPTGWVCLSLSGTDPRETFCQESR | failed
MEESTVQAPSKRRCSVYEVDGFRFRRKKKRTTESSFVEPIQKEVSNSDSCGHVNDDLNNEEKENKLNVATVPIKSRETVSLAKQEEKTKKLYCESISKDQSEEQRLKALCEAVWTEIYKEAIEEKLPEKGTSLRVLEDVRVAFLDQLTWYLDNPEQRSKTVSEISRPNPINLELEVKIKSLEHDLNCYCNELLGWSNAKSILEEPAKDNKSNETAFSIEERAKKIAVSLSSPYQPQLTRLIKEATVCLDINFTELLEICRIVLTFKNQTAERIKVSYKQELFSNHYQHENS | failed
MYLVCGEALFDVFSLESAARSNELGFTAIAGGSPFNVAVGLRRLGVEAALFGGLSSDYLGARLRRVLEEEGVDCGFLVPSDAPTTLAMVGLDASGSAQYQFRGEGCADRQVRLEHLPTLDGRIRGLHVGSYTLVVTPVADTLLALVRRESGRRLVSLDPNVRLDPQPDIDLWRRRVEAFASHAHLIKASEEDLALLYPGRDPGEVARGWLNPRCRLVFVTHGGAGASVHCTHGSWSRPADTALPLRDTVGAGDTFQAATLAYLRRLDADSPAGLAALSREAIDAMLAFAIRAAAVTCSRVGPDLPFAHEL | failed
MFKHCLICTDFSDGLQRLAGFVEELSLSGITKLIFLHTVSVWEDEHIADVDESKLKEAKTYLESLVGQVPPGIEVKVEVSSVRYVDLVNQLVEQEAIDLIINGMPVRSNLESKLFGSHTLSLAKSTKVPVMILRPQLVSTYTVEEMALRCQHLWRNLLVPYDASSAGNYLIERLKSALEKAPPGKVESCYFLSILEDGMRRPELLEIRRQEAEAKLAEIKQQFSPLVPNIITEVRHGSPVQEILDTAFVNDITAIAVASRRATLLDWTVPSLTDSILNRSWFPLLFFSPKG | failed
MIENEFGEVSVDDQLIGDRATQIKTLTNGCICCSRSNELEDALLDLLDNLDKGNIQFDRLVIECTGMADPGPIIQTFFSHEVLCQRYLLDGVIALVDAVHADEQMNQFTIAQSQVGYADRILLTKTDVAGEAEKLHERLARINARAPVYTVTHGDIDLGLLFNTNGFMLEENVVSTKPRFHFIADKQNDISSIVVELDYPVDISEVSRVMENLLLESADKLLRYKGMLWIDGEPNRLLFQGVQRLYSADWDRPWGDEKPHSTMVFIGIQLPEEEIRAAFAGLRK | not failed
MQDEYYMARALKLAQRGRFTTHPNPNVGCVIVKDGEIVGEGYHQRAGEPHAEVHALRMAGEKAKGATAYVTLEPCSHHGRTPPCCDALIAAGVARVVASMQDPNPQVAGRGLYRLQQAGIDVSHGLMMSEAEQLNKGFLKRMRTGFPYIQLKLGASLDGRTAMASGESQWITSPQARRDVQLLRAQSHAILTSSATVLADDPALTVRWSELDEQTQALYPQQNLRQPIRIVIDSQNRVTPVHRIVQQPGETWFARTQEDSREWPETVRTLLIPEHKGHLDLVVLMMQLGKQQINSIWVEAGPTLAGALLQAGLVDELIVYIAPKLLGSDARGLCTLPGLEKLADAPQFKFKEIRHVGPDVCLHLVGA | not failed
MGEKPWQPLLQSFEKLSNCVQTHLSNFIGIKNTPPSSQSTIQNPIISLDSSPPIATNSSSLQKLPLKDKSTGPVTKEDLGRATWTFLHTLAAQMTILSRMYPCRECADHFKEILRSNPAQAGSQEEFSQWLCHVHNTVNRSLGKLVFPCERVDARWGKLECEQKSCDLHGTSMDF | failed
MNENEQKAGSVADQKSKIRERYKGIDPDELDVIPALPQEDIFAVENEQRVAVYARVSTDDPRQTSSYELQKNHYHDVISKSPNWKLVQIYADEGISGTSLQHRDQFKLMIEDCKKGQIDLIVTKSVSRFARNVVDCIGYVRELLSLPHPVGVFFETERLNTFDPKSEMVLSFMATLAQEESHTKSEIMNASIEMRFRRGIFLTPILLGYDHDEDGNLIINEGEAKIVKLIFMMYLNGCTCQEIADTLTELGCETKKGNTVWSPGSILQILQNERHCGDVLAHKTYTPNYLNHKSKKNMQNRPQYRKRDHHEAIISRDDFIAVQRLISNAKYGNKGILPQLKVIPGGVLKGFVSINPRWAGFKETDYMNASSSVYDGTEQSGPSSGHVEVKSGEFDLRGYEIARSQFFDSTDRITVTFSQGDIRFSAPAVRKLDSTLVELLIHPKKLVFAVRNAGKDCRNAMQWSKKKDGKNSPREISGTAFLPTLYSLLGWNDDCRYRITGVKRGSGNDAVLLFNLSEPEIFIPNDMVGAPDADPAVKPFTDNQQRNVRAYPPDWADTFGSNYYSHAQAEELAGFTGRKDPDTSHAPVTYNDTDIQVTSKNDIEKNIKQIMSDMKENTDEHTDKR | failed
VSDMNGLGFKPFDLVIPFAVRKGEITGEVHMPSGKTATPEIVDNKDGTVTVRYAPTEVGLHEMHIKYMGSHIPESPLQFYVNYPNSGS | not failed
MEDKFANLSLHEKTGKSSIQLNEQTGSDNGSAVKRTSSTSSHYNNINADLHARVKAFQEQRALKRSASVGSNQSEQDKGSSQSPKHIQQIVNKPLPPLPVAGSSKVSQRMSSQVVQASSKSTLKNVLDNQETQNITDVNINIDTTKITATTIGVNTGLPATDITPSVSNTASATHKAQLLNPNRRAPRRPLSTQHPTRPNVAPHKAPAIINTPKQSLSARRAVKLPPGGMSLKMPTKTAQQPQQFAPSPSNKKHIETLSNSKVVEGKRSNPGSLINGVQSTSTSSSTEGPHDTVGTTPRTGNSNNSSNSGSSGGGGLFANFSKYVDIKSGSLNFAGKLSLSSKGIDFSNGSSSRITLDELEFLDELGHGNYGNVSKVLHKPTNVIMATKEVRLELDEAKFRQILMELEVLHKCNSPYIVDFYGAFFIEGAVYMCMEYMDGGSLDKIYDESSEIGGIDEPQLAFIANAVIHGLKELKEQHNIIHRDVKPTNILCSANQGTVKLCDFGVSGNLVASLAKTNIGCQSYMAPERIKSLNPDRATYTVQSDIWSLGLSILEMALGRYPYPPETYDNIFSQLSAIVDGPPPRLPSDKFSSDAQDFVSLCLQKIPERRPTYAALTEHPWLVKYRNQDVHMSEYITERLERRNKILRERGENGLSKNVPALHMGGL | failed
MATAPRPLREQYLHFQPISTRWHDNDIYGHVNNVTYYAFFDTAVNTYLIERGGLDIQGGEVIGLVVSSSCDYFAPVAFPQRIEMGLRVARLGNSSVQYELALFLEGQREACAAGRFVHVFVERRSSRPVAIPQELRDALAALQSSAQ | not failed
MQNLSLQKALKKPEVKTLLQQLGDSLGKNFAIFDIGGHCLWGKAQDSQPKVDIYCHQVLMGTITGEFTEHSAEAIAAMLSYIVQTEYEKKQLAKDTLQKYEEVVFLSQFANAVATCTGLQELIEVIRAEIRQVISVDEIFLYLYDQSQDSLTPLLYKTEESLQNFKAIEKIVERVLKLNQVEVIDDIQNDQDYLNQPSKIRSLLCYSLTVQNSIIGVLGLAHYQVKHFDSSDLNLFSTLTGQVAAAIRTAQYYETIKNYSQTLEIRVKERTMELEFAKQQLEQVNQRLKHLAIYDELTQIPNRRYFTSYLEQEWRQCLRQKSPISLILCDVDYFKNYNDLYGHQMGDKCLQSVAKVIQNALKRPSDVLARYGGEEFIVILPYTDQSGAYTVGQRIHHCLAEAQISHADSPTSRYLTISLGIGTTVPLLHYHPSDLIKIADQALYAAKAAGRNQTKLKTLSFQCS | failed
MPKIPITLITGFLGSGKTSFLSEYLNQTDHQGVALIINEIGQAALDQRILSVQYCGEKMLYLNAGCVCCNKRLDLVESLKATLNNYEWHGEILRRIIIETTGLANPAPILWTILSDTFLGVHFEIQSVVACVDALNAREHLTNNEAKEQIVFADSVLLTKTDLQNDSAALTKLKERIQALNPSAEIFDKRAIDYESLFSRKNRARNFMPLEHHHHHH | failed
MTRSEQNPVLFLAPDNVLWLLYTAQKSGNQDTAIVRYRQSTDLGATWGEIGTLLDQPGTFIRQPITVLENGDWLLPVFYCRVQPGEKWVGNDDDSAVKISSDQGKTWREYPVPNSTGCVHMNITPLQDGTLLALYRSRWADFIYQSRSTDGGKTWSEPVATDLPNNNSSIQVTTLKNGHLALVFNHMSAADATDRRLSLYDEIEDEEDKASGAKMPEVQAGDRSAFWGAPRAPMTLAISEDGGKSWPYQRNIEVGDGYCMTNNSTEKLNREFSYPSVKQAPDGKLHVAFTYFRQAIKHVVVSEEWVKAGLEHHHHHH | failed
MPLGHLFDKSYDEMHCNQKNWEMAERKLMEDAVQSALSKQNLKKEDIDIFLAGDLLNQNVTANYVARHLKIPFLCLFGACSTSMESIAISSALIDGGFAKRALAATSSHNATAERQFRYPTEYGGQKPGTATSTVTGSGAVVLSQQPGGIKITSATVGRVIDLGITDSQDMGSAMAPAAADTIKQHLEDLGRTPDDYDLILTGDLSGVGSPILKDLLKEEGINVGTKHNDCGLMIYTPDQQVFAGGSGCACSAVVTFAHIFKEIEAGRLNRVLVVATGALLSPTIIQQKESIPCIAHGVVFERAERGNALEHHHHHH | not failed
MTTVDSPRDANGPPRFAASGFATPRRPDDTDDTGDADETAATVPHRTRALTTPPRRKTIAAPCIDARTRRDRPARRATHARRALADFRAPAPPVARGTTRNRARRYACPSVDAVARTAPSPHAHRAAPARRPPSSEGAIMSEAVRMERDTFGEIAVPAARLWGAQTQRSLQNFKISTEKQSPELIHALALIKRAAAAVNLELGVLAQDKANAIVAAADEIIAGRHADEFPLAVWQTGSGTQTNMNLNEVIANRASELLGGERGESRAVHPNDDVNRGQSSNDVFPTAMHIAAARAIVDHLLPALRTLRATLDAKAAAFADIVKIGRTHLQDATPLTLGQEFSGYVAQLDQGIRHVEAALPHLYELAQGGTAVGTGLNAHPKFAAGVAAEIGRLTGLPFVSAPNKFEVMAAADALVFAHGALKTVAASLMKIANDIRWLASGPRCGLGELSIPENEPGSSIMPGKVNPTQSEAVTMLCCQVFGNDVAVNFGGASGNFELNVFRPMIAHNVLQSVRLLADGAQGFNDHCAVGIEPNRARIDALLNESLMLVTALNPHIGYDKAAQIAKKAHKEGTTLKAAALALGYVTDAQFDEWVRPEHMVGNR | not failed
MNNLIITTRQSPVRLLVDYVATTILWTLFALFIFLFAMDLLTGYYWQSEARSRLQFYFLLAVANAVVLIVWALYNKLRFQKQQHHAAYQYTPQEYAESLAIPDELYQQLQKSHRMSVHFTSQGQIKMVVSEKALVRA | failed
